Assays:
[1] = molecular target: T1, CD47 on the surface of A20 mouse lymphoma cells (mouse (A20 mouse lymphoma cells), UniProt Q61735 19-303); assay: pull-down assay on A20 cells
T1 construct: whole, on cells; also called CD47 receptor; CD47 immune checkpoint
T1 sequence (looked up): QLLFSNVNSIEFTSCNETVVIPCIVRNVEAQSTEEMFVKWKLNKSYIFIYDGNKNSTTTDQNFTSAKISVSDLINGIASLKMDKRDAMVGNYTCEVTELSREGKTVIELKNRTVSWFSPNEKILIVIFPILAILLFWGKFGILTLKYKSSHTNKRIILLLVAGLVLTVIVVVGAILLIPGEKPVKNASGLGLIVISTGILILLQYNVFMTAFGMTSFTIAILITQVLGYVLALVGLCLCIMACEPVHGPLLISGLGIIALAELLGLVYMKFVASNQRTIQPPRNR

[2] = molecular target: T2, PD-L1 on the surface of A20 cells (mouse (A20 mouse lymphoma cells), UniProt Q9EP73 19-290); assay: flow cytometry on A20 cells, competition with anti-PD-L1-PE (10F.9G2)
T2 construct: whole, on cells; also called PD-L1 receptor; CD274

[3] = molecular target: T3, mice CTLA-4 recombinant protein (R&D systems) (mice, UniProt P09793 36-161); assay: ELISA on coated mouse CTLA-4, detection with anti-pVIII-HRP
T3 construct: Coated on ELISA plates at 10 µg/mL; also called recombinant CTLA-4 protein; CTLA-4 immune checkpoint

[4] = molecular target: T2, PD-L1 on the surface of A20 cells; assay: ELISA on fixed A20 cells, detection with anti-HA-HRP
PD-L1 on A20 cells = molecular target: T4, PD-L1 on A20 cells (Mus musculus, UniProt Q9EP73); assay: Binding to PD-L1 on fixed A20 cells by ELISA; conditions: nanobody 1 nM to 10 μM, detection anti-HA-HRP
T4 construct: host or cells: A20 mouse B lymphoma cells (live for flow cytometry, formalin-fixed for ELISA)
Experimental: Assessment of anti-PD-L1 displaying bacteriophages binding activity on A20 cells by EUSA. A 96 wells plate was prepared by adding in each well 100 μL of PBS comprising 1×10^5 A20 cells. The plate was then incubated 30 min to allow sedimentation of the cells. The plate was then tilted and the PBS was carefully removed. To fix the cells to the plate, 100 μL of 10% formalin was then added, and the plate was incubated for 10 min. The fixed cells were then washed gently with 100 μL of PBS and then blocked by adding 200 μL of PBS (1% BSA, 3% milk), followed a 30 min incubation periode. The blocking buffer was removed and then 100 μL of bacteriophage PEG preparation was added to the wells. The plate was incubated 1 h and then washed three times with 200 μL of PBS. To detect the bacteriophages, 100 μL of anti-HA-HRP (Cell Signaling) 1/500 diluted in PBS (3% milk, 1% BSA) was added and the plate was incubated for 1 h. […] Then, 100 μL from each well was transferred to a new plate and optical density was measured at 450 nm.
Assessment of anti-PD-L1 nanobody binding activity on A20 cells by EISA. […] Then, 100 μL from each well was transferred to a new plate and optical density was measured at 450 nm. […] Tumor sizes were then monitored twice a week using a precise caliper until tumors exceed 1500 mm^3 or until day 24 after the first injection. […]

T2 sequence (Q9EP73 19-290): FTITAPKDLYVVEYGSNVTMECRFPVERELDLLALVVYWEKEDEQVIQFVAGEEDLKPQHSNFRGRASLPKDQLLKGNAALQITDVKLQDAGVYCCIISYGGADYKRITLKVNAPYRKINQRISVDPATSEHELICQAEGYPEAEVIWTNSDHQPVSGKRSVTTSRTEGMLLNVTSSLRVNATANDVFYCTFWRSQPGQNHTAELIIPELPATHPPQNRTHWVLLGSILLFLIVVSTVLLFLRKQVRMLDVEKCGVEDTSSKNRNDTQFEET
T4 sequence (Q9EP73 19-290): as above

B1: synthetic bacteriophage displaying an anti-CD47 nanobody on pIII (MG1655+pTAT004+pTAT003) (other, not shown: small tags and cut ends; large carriers)
chain: QVQLVESGGGLVEPGGSLRLSCAASGIIFKINDMGWYRQAPGKRREWVAASTGGDEAIYRDSVKDRFTISRDAKNSVFLQMNSLKPEDTAVYYCTAVISTDRDGTEWRRYWGQGTQVTVSSGGLPETGG
notes: also called pTAT003 derived bacteriophages; nbCD47-pIII bacteriophages
[1]
  binding result: binds

B2: synthetic bacteriophage displaying an anti-PD-L1 nanobody on pIII (MG1655+pTAT004+pTAT020) (other)
chain: QVQLVETGGGLVQPGGSLRLSCTASGFTFSMHAMTWYRQAPGKQRELVAVITSHGDRANYTDSVRGRFTISRDNTKNMVYLQMNSLKPEDTAVYYCNVPRYDSWGQGTQVTVSSGGLPETGG
notes: Whole phage particle; also called anti-PD-L1 synthetic bacteriophage; not shown: HA-6His dual tag linker; C-terminal fragment of coat protein pIII (gpIII-C) of bacteriophage M13
[2]
  binding result: binds

B3: synthetic bacteriophage displaying an anti-CTLA-4 anticalin on pIII (MG1655+pTAT004+pTAT030) (other)
chain: QDSTSDLIPAPPLSKVPLQQNFQDNQFHGKWYVVGLAGNRILRDDQHPMNMYATIYELKEDKSYNVTSVISSHKKCEYTIATFVPGSQPGEFTLGNIKSYGDKTSYLVRVVSTDYNQYAMVFFKLAEDNAEFFAITIYGRTKELASELKENFIRFSKSLGLPENHIVFPVPIDQCIDG
notes: Whole phage particle; not shown: HA-6His dual tag linker; C-terminal fragment of coat protein pIII (gpIII-C) of bacteriophage M13
[3]
  binding result: binds

B4: synthetic bacteriophage displaying the anti-PD-L1 nanobody at the N-terminal end of pIII (MG1655+pTAT032) (other)
chain: B2 chain
notes: Single-vector system derived from M13mp18-Kan; also called pTAT32; anti-PD-L1 nanobody on pIII; not shown: C-terminal fragment of coat protein pIII (gpIII-C) of bacteriophage M13
[2]
  binding result: binds

B5: synthetic bacteriophage displaying the anti-PD-L1 nanobody inserted between the binding domain and the bacteriophage anchor domain of pIII (MG1655+pTAT033) (other)
chain: B2 chain
notes: Single-vector system derived from M13mp18-Kan; whole phage particle, remained infectious; also called anti-PD-L1 nanobody inserted in pIII; not shown: N-terminal part of pIII (D1/D2 domains) of bacteriophage M13; C-terminal part of pIII (gpIII-C, transmembrane region / anchor domain) of bacteriophage M13
[2]
  binding result: binds

B6: purified anti-PD-L1 nanobody with hexahistidine and HA tags fused in C-terminal (VHH)
VHH: QVQLVETGGGLVQPGGSLRLSCTASGFTFSMHAMTWYRQAPGKQRELVAVITSHGDRANYTDSVRGRFTISRDNTKNMVYLQMNSLKPEDTAVYYCNVPRYDSWGQGTQVTVSS
notes: Expressed from the pTrcHis vector in E. coli BL21 (DE3), purified on Ni-NTA; also called nbPDL1 (pTAT034); not shown: hexahistidine and HA tags fused in C-terminal
[4]
  binding result: binds

B7: purified anti-PD-L1 nanobody: purified anti-PD-L1 nanobody with hexahistidine and HA tags, expressed in BL21 (DE3) (protein)
VHH: B2 chain
modifications: left off: small tags and cut ends
PD-L1 on A20 cells
  purified nanobody binding activity on A20 cells (ELISA): confirmed its binding activity on A20 cells

Source: patent US20230372419A1, “LIVE BIOTHERAPEUTICS SECRETING SYNTHETIC BACTERIOPHAGES IN THE TREATMENT OF CANCER” (TATUM BIOSCIENCE INC., priority 2020, published 2023)
